We go through six molecules from patent publication US20260116991A1 (HAINAN SIMCERE ZAIMING PHARMACEUTICAL, published 2026).

The target of assay [1] is T1, murine GPC3-his protein (Sino Biological, Cat. No. 50989-M08B) (murine, UniProt Q8CFZ4 25-558).
T1 construct: Bought protein; also called murine GPC3 protein
The assay is described as follows: ELISA, coated murine GPC3-His.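 Also: antigen coated on plates at 1 µg/mL, test antibody bound for 2 h at 37 °C, detected with HRP-conjugated secondary antibody and TMB substrate after acid stop.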 A general note: In an ELISA, binding on a coated surface is turned into a signal by an enzyme label.

The next assay concerns the target T2, monkey GPC3-His protein (monkey).
T2 construct: Bought recombinant protein; also called monkey GPC3 protein
Briefly: ELISA, monkey GPC3-His coated.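 Also: Plate-coated antigen at 1 µg/mL, antibody binding 2 h at 37 °C, detected with HRP-labeled secondary antibody and TMB, absorbance at 450 nm.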

Assay [2] deals with biotinylated labeled human GPC3 protein (produced in-house) (human, UniProt P51654 25-559, limits assumed, biotinylated (Dojindo, Cat. No. LK03); sites not stated). The assay is described as follows: ELISA, biotinylated human GPC3 protein.

T1 sequence (Q8CFZ4 25-558 limits assumed): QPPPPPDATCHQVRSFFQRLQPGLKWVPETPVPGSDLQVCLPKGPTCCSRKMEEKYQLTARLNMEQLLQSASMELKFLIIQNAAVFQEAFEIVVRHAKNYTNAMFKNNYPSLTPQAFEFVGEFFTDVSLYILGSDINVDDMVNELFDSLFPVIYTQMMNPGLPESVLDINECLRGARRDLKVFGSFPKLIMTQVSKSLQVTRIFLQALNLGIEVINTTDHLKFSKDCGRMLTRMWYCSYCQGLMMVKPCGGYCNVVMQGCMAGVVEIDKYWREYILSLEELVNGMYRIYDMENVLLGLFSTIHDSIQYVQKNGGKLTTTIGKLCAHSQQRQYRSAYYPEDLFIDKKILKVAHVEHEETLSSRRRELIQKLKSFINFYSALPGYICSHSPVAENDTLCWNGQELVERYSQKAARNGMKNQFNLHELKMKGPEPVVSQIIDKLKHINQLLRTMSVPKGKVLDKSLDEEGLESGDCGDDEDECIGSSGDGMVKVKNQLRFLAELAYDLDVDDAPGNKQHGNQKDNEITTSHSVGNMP

B1: F1.83.6 human-murine chimeric antibody (antibody, human IgG1, kappa, V domains shown)
VH: QVQLQQSGPELVKPGASVKISCKASGYAFSSSWMNWVKQRPGKGLEWIGRIYPGDGDTNYNGRFKGKATLTVDKSSSTAYMQLSSLTSEDSAVYFCARGGVFTMALDHWGQGTTLTVSS
VL: DIQMTQSPSSLSASLGGKVTITCKASQDINKYIAWYQHKPGKGPRLLIHYTSTLQPGIPSRFSGSGSGRDYSFSISNLEPEDIATYYCLQYDNLFTFGGGTKLEIKR
As for B1, in assay [1], the “OD450 at 0.0001 nM antibody” value came to 0.05 OD450 nm, the “OD450 at 0.001 nM antibody” value was determined as 0.05 OD450 nm, the “OD450 at 0.01 nM antibody” value stood at 0.06 OD450 nm and the “OD450 at 0.1 nM antibody” value was 0.12 OD450 nm. Besides, in assay [1], the “OD450 at 1 nM antibody” value was determined as 0.14 OD450 nm, the “OD450 at 10 nM antibody” value was determined as 0.24 OD450 nm and the “OD450 at 100 nM antibody” value came out at 0.16 OD450 nm.

B2: F1.21.8 human-murine chimeric antibody (antibody, human IgG1, kappa, V domains shown)
VH: EVQLQQSGPELVKPGASVKISCKTSGFLFTGHYMHWVKSSHGNILDWIGYIYPYNAISFYNQKFKGKATLTVDKSSNTAYMELRSLTSEDSAVYYCARGDYGNYVTAYWGQGTLVTVSA
VL: DVLMTQTPLSLPVSLGDQASISCRSSQSIVHSSGNTYLEWYLQKPGQSPKLLIYKVSNRFSGVPDRFSGSGSGTDFTLKISRVEAEDLGVYYCFQGSHLPWTFGGGTKLDIKR
Regarding B2, in assay [1], the “OD450 at 0.0001 nM antibody” value is 0.05 OD450 nm, the “OD450 at 0.001 nM antibody” value came out at 0.07 OD450 nm, the “OD450 at 0.01 nM antibody” value came to 0.17 OD450 nm and the “OD450 at 0.1 nM antibody” value was determined as 0.76 OD450 nm. Also, in assay [1], the “OD450 at 1 nM antibody” value came out at 1.12 OD450 nm, the “OD450 at 10 nM antibody” value came out at 1.41 OD450 nm and the “OD450 at 100 nM antibody” value was found to be 1.84 OD450 nm.

B3: F2.152.3 (antibody, human IgG1, kappa, V domains shown)
VH: EVQLQQSGPELVKPGASVKMSCKASGYTFTDYYMTWVKQSHGKSLEWIGRVNPRNGDTTYNQKFEGRATLTLDKSLSTAFMQLNSLTSEDSAVYYCINSKGHFDYWGQGTTLTVSS
VL: DVLMTQTPLSLPVSLGDQASISCRSSQSIVHSNGNTYLEWFLQKPGQSPKSLIYKVSNRFSGVPDRFSGSGSGTDFTLKISRVEAEDLGVYYCFQGSHVPPTFGAGTKLELKR
notes: Human-murine chimeric antibody
B3: in the assay with monkey GPC3-His protein, the “OD450 at 0.0001 nM” value stood at 0.24 OD450, the “OD450 at 0.001 nM” value is 0.31 OD450, the “OD450 at 0.01 nM” value is 0.69 OD450 and the “OD450 at 0.1 nM” value was found to be 1.92 OD450. Also, in the assay with monkey GPC3-His protein, the “OD450 at 1 nM” value was 2.52 OD450, the “OD450 at 10 nM” value was 2.31 OD450 and the “OD450 at 100 nM” value worked out at 2.41 OD450.

B4: F1.78.24 human-murine chimeric antibody (antibody, human IgG1, kappa, V domains shown)
VH: QVQLQQSGAELVKPGASVKMSCKASGYTFTTYPIEWMKQNHGKSLEWIGNFHPYNDDTNYNVKFKGKATLTVEKSSSTVYLELSRLTSDDSALYYCARRREYYGSFDVWGTGTTVTVSS
VL: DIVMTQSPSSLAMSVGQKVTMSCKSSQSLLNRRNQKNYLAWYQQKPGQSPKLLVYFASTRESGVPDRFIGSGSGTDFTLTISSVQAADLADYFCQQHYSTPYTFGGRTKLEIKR
Take B4: in assay [1], the “OD450 at 0.0001 nM antibody” value stood at 0.05 OD450 nm, the “OD450 at 0.001 nM antibody” value stood at 0.06 OD450 nm, the “OD450 at 0.01 nM antibody” value was determined as 0.1 OD450 nm and the “OD450 at 0.1 nM antibody” value was found to be 0.24 OD450 nm. Besides, in assay [1], the “OD450 at 1 nM antibody” value came out at 0.17 OD450 nm, the “OD450 at 10 nM antibody” value stood at 0.34 OD450 nm and the “OD450 at 100 nM antibody” value came to 0.25 OD450 nm.

B5: F1.41.17 human-murine chimeric antibody (antibody, human IgG1, kappa, V domains shown)
VH: EVQLVESGGDSVKPGGSLKLSCAASGFTFSSYGMSWVRQTPDKRLEWVATINSGGSYTYYQDSVKGRFTISRDNAKNTLYLQMSSLKSEDTAIYYCVRHHYGSSYDYFDYWGQGTTLTVSS
VL: DIVMTQAAPSVPVMPGESVSISCRSSKSLLHSNGNTHLYWFLQRPGQSPQLLIYRMSNLASGVPDRFSGSGSGTAFTLRISRVEAEDVGVYYCMQHLEYPLTFGAGTKLELKR
As to B5, in assay [1], the “OD450 at 0.0001 nM antibody” value amounted to 0.06 OD450 nm, the “OD450 at 0.001 nM antibody” value worked out at 0.05 OD450 nm, the “OD450 at 0.01 nM antibody” value worked out at 0.05 OD450 nm and the “OD450 at 0.1 nM antibody” value worked out at 0.06 OD450 nm. For the same molecule, in assay [1], the “OD450 at 1 nM antibody” value came to 0.07 OD450 nm, the “OD450 at 10 nM antibody” value turned out to be 0.08 OD450 nm and the “OD450 at 100 nM antibody” value was 0.11 OD450 nm.

B6: hAb006LH1L1a (antibody, human IgG1, V domains shown)
VH: EVQLVQSGAEVKKPGSSVKVSCKASGYTFSDYEIHWVRQAPGQGLEWMGAIDPKTGNTAYNQKFMGRVTITADKSTSTAYMELSSLRSEDTAVYYCTRYFSFAYWGQGTLVTVSS
VL: DIVMTQTPLSLPVTPGEPASISCRSSQTFVHSDGNTYLQWYLQKPGQSPQLLIYKVSNRFSGVPDRFSGSGSGTDFTLKISRVEAEDVGVYYCFQGSHVPYTFGQGTKLEIK
notes: Humanized F3.38.7; VH H1 + VL L1a; expressed as human IgG1
B6: in assay [2], the “OD450 at 0.0008 nM” value was 0.076 OD450, the “OD450 at 0.004 nM” value came out at 0.078 OD450, the “OD450 at 0.02 nM” value stood at 0.101 OD450 and the “OD450 at 0.11 nM” value came out at 0.268 OD450. Moreover, in assay [2], the “OD450 at 0.53 nM” value came out at 0.904 OD450, the “OD450 at 2.67 nM” value came to 1.49 OD450, the “OD450 at 13.33 nM” value amounted to 1.92 OD450 and the “OD450 at 66.66 nM” value worked out at 2.1 OD450.
